Assay: yeast display, Sf9 membrane polyspecificity reagent, FACS + sequencing; frameworks hold sequencing errors
Procedure, shortened: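 A nanobody's polyreactivity label depends on the gate it was sorted from. Yeast display cells were stained with 10% biotinylated, detergent-solubilized Sf9 membrane reagent for 1 hour at 4 °C, enriched on streptavidin microbeads and sorted by FACS. The low and high (top ~1%) gates were set on anti-HA fluorescence for expression and streptavidin fluorescence for reagent binding.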

Row | Sequence | polyreactivity (PSR sort gate)
1 | QVQLVESGGGLVQAGCSLRLRCAASGFTFQYNGMGWYRQAPGKERELVAAINWSGGTTYYADSVKGRFTISRDNAKNTVYLLMNCLKPEDTAVYYCAKGYWRRYSPVGGLGYDYWGQGTQVSVSS | high polyreactivity
2 | QVQLVESGGGLVQAGCSLRLSCAACGSIFRAYAMGWYRQAPGKERELVADISRSGGSTYYADSVKGRFTISRDNAKNTVYLQMNSLKPEDTAFYYCAASYLGGQWRALGYDYWGQGTQVTVSS | low polyreactivity
3 | QVQLVESGGGLVQAGCSLRLSCAASGFIFQANAMGWYRQAPGKERELVAAIDDGDSTYADSVKGRFTISRDNAKNTVYLQMNSLKPEDTAVYYCNADLYGAQDRRLDYYAEGYWGQGTQVTVSS | low polyreactivity
4 | QVQLVESGGGLVQAGCSLRLSCAASGFIFSRYTMGWYRQAPGKERELVAAISRRGGNTYYADSVKGRFTISRDNAKNTVYLQMNSLKPEDTAVYYCADEYNQSFDYWGQGTQVTVSS | low polyreactivity
5 | QVQLVESGGGLVQAGCSLRLSCAASGFIILNYTMGLYRQAPGKERELVAAISNGSDRTYYADSVKGRFTISRDNAKNTVYLQMISLKTEDTAVYYCAKDRDFSSPPTESGFDYWGQGTQVNVSS | low polyreactivity
6 | QVQLVESGGGLVQAGCSLRLSCAASGFIYPVNAMGWYRQAPGKERELVAAITYSTGSTYYADSVKGRFTISRDNAKNTVYLQMNSLKPEDTAVYYCAADVPPGEVVTNDYWGQGTQVTVSS | low polyreactivity
7 | QVQLVESGGGLVQAGCSLRLSCAASGFTFGRNAMGWYRQAPGKEREFVADISGSVGSTYYADSVKGRFTISRDNAKNTVYLQMNSLKPEDTAVYYCAADTLYPRWEFDYWGQGTQVTVSS | high polyreactivity
8 | QVQLVESGGGLVQAGCSLRLSCAASGFTFHTYAMGWYRQAPGKERELVAAITGRGGSTYYADSVKGRFTISRDNAKNTVYLQMNSLKPEDTAVYYCTAYRRGWGDRMYYWGLGTQVTVSS | high polyreactivity
9 | QVQLVESGGGLVQAGCSLRLSCAASGFTFPIYAMGWYRQAPGKEREFVAAITASGDNTYYADSVKGRFTISRDNAKNTVYLQINSLKPEDTAVYYCAADWFVDWWEYDYWGQGTQVTVSS | low polyreactivity
10 | QVQLVESGGGLVQAGCSLRLSCAASGIIFAWYAMGWYRQAPGKERELVAGISQSGGRTYYADSVKGRFTISRDNAKNTVYLQMNSLKPEDTAVYYCAAERPYSRVGYYYWGQGTQVTVSS | high polyreactivity
11 | QVQLVESGGGLVQAGCSLRLSCAASGIIYINYAMGWYRQAPGKERELVAVITRGGSTYYADSVKGRFTISRDNAKNTVYLLMNSLKPEDTAVYYCNARYLSWWTGRFNYWGQGTQVTVSS | high polyreactivity
12 | QVQLVESGGGLVQAGCSLRLSCAASGITFTEYAMGWSRQAPGKERELGATISYGGGITYYADSVKGRFTISRDNAKNTVYLQMNSLKPEDTAVYYCAADGLSQVQRGMDYWGQGTQVTVSS | low polyreactivity
13 | QVQLVESGGGLVQAGCSLRLSCAASGLIFPGYDMGWYRQAPGKERELVADISDSGANTYYADSVKGRFTISRDNAKNTVYLQMNSLKPEDTAVYYCAADSSWWYGTSFGRFDYWGQGTQVTVSS | low polyreactivity
14 | QVQLVESGGGLVQAGCSLRLSCAASGLIFRSYAMGWYRQAPGKERELFARISIRGGSTYYADSVKGRFTISRDNAKNTVYLQMNSLKPEDTAVYYCAARPKNNWARTKYGIRYNYWGQGTQVTVSS | high polyreactivity
15 | QVQLVESGGGLVQAGCSLRLSCAASGLIFYYYAMGWYRQAPGKERELVAAITSDDRTYYADSVKGRFTISRDNAKNTVYLQMNSLKPEDTAVYYCAARYHGYLAQYRKYGYGYWGQGTQVTVSS | high polyreactivity
16 | QVQLVESGGGLVQAGCSLRLSCAASGLIIPVYVMGWYRQAPGKERELVADITTVGSTYADSVKGRFTISRDNAKNTVYFQMNSLKPEDTAVYYFADDPPAQQYWWDHGNYWGQGTQVTVSS | low polyreactivity
17 | QVQLVESGGGLVQAGCSLRLSCAASGRTFGVYAMGWYRQAPGKERELVAGIRWRGGSTYYADSVKGRFTISRDNAKNTVYLQMNSLKPEDTAVYYCAADVYLVKYDYWGQGTQVTVSS | low polyreactivity
18 | QVQLVESGGGLVQAGCSLRLSCAASGRTFRSDNSMGWYRQSPGKQRELVAAISQGGGTYYADSVKGRFTISRDNAKNTVYLLMNSLIPEDTAVYYCARDAFYADPSLWYYTYDFWGQGTQETVSS | low polyreactivity
19 | QVQLVESGGGLVQAGCSLRLSCAASGRTFYFYTMGWYRQAPGKVRELVAAISWSGGSTYYADSVKGRFTISRDNAKYTVYLQMNSLKPEDTAVYYCNAVFFKGSESGLDYWGQGTQVTVSS | high polyreactivity
20 | QVQLVESGGGLVQAGCSLRLSCAASGRTFYYNAMGWYRQAPGKERELVAAITRSGSSTYYADSVKGRFTISRDNAKNTVYLQMNSLKPEDTAVYYCAARVGDAYYYWGQGTQVTVSS | high polyreactivity
21 | QVQLVESGGGLVQAGCSLRLSCAASGRTLGWNAMGWYRQAPGKERELVAAISSSTSTYYADSVKGRFTISRDNAKNTVYLQMNSLKPEDTAVYYCAALYWGQGTQVTVSS | low polyreactivity
22 | QVQLVESGGGLVQAGCSLRLSCAASGRTLKYNAMGGYIQAPGKERELVAAISRSGGRLYYADSVKGRFTMSRDNAKNTVYLQMNSLKPEDTAVYYCAKDRSGSYYNFPEYDYWGQGTQVTVSS | high polyreactivity

Row | Sequence | polyreactivity (PSR sort gate)
23 | QVQLVESGGGLVQAGCSLRLSCAASGSIFEPYVMGWYRQAPGKERELVAAIRQTGGSTYYADSVKGRFKISRDNAKNTVYLQMNSLKPEDNAFYYCNAEHNPSGLYDYRGVECEMGYWGQGNQVTVSS | low polyreactivity
24 | QVQLVESGGGLVQAGCSLRLSCAASGSIFPANAMGWYRQAPGKEWEFVAAINWSTGTTYNADSVKGRFTISRDNAKNTVYLQMTSLKPEDTAFYHCAAGDWYSGNTTHFYYWGQGTQVTVSS | low polyreactivity
25 | QVQLVESGGGLVQAGCSLRLSCAASGSIFYQYSMGWYRQAPGKERELVAAITWDGSRTYYADSVKGRFTISRDNAKNSVYLQMNSLKPEDTSVYYSNAVTRYSLFDYWGLGTQVTVSS | high polyreactivity
26 | QVQLVESGGGLVQAGCSLRLSCAASGSIYLVNAMGWYRQAPGKERELVAAIDWSGDTTYYADSVKGRFTISRDYEKNTVYLQMNRLKPEDTAVYYCAAEYEFHEYDYWGQGTQVTVSS | high polyreactivity
27 | QVQLVESGGGLVQAGCSLRLSCAASGSSFYTYTMGWYRQAPGKERELVAAITWSGGSTYYADSVKGRFTISRDNAKNTVYLQMNSLKPEDTAVYFCNADQDYQAARPSGMDYWGQGTQVTVSS | low polyreactivity
28 | QVQLVESGGGLVQAGCSLRLSCAASGSTFPYNAMGWYRQAPGKERELVATIDATGGSTSYADSVKGRFTISRDNAKNTVYLQMNSLKPEDTAVYYCAAVAYILYFYAYYLTYDYWGQGTQVTVSS | low polyreactivity
29 | QVQLVESGGGLVQAGCSLRLSCAASGSVFTVYSMGWYRQAPGKERELVAAITRNGGRTYYADSVKVRFTISRDNSKNTVYLQMKILKPEDTAVYSCAATGLYSRLDYWGQGTQVTVSS | high polyreactivity
30 | QVQLVESGGGLVQAGCSLRLSCAASGYIFYNAMGWYRQAPGKERELVAAITSGGSTNYADSVKGRFTISRDNAKNTVYFQMNSLKPEDTADYYCNAVVYSPYRYEYWGQGTQVTVSS | low polyreactivity
31 | QVQLVESGGGLVQAGCSLRLSCDASGSIFTWYAIGWYRQAPGKERELVAAITRGGSTYADSVKGRFTISRDNAKNNVYLQMNSLKPEDSAVYYCAARRVPIRVGGYPYYYWGQGSQVTVSS | low polyreactivity
32 | QVQLVESGGGLVQAGCSLRLSFAASGFSFRRYALGSYIPAPGKERELVAAITNSGGSTYYADSVKGRFTISRDNAKNSVYLQLNSLKPEDTAVYYCVALRSACAYDYWGQGTQVTVSS | high polyreactivity
33 | QVQLVESGGGLVQAGCSLRLSFAASGRTLVPYSMGWYRQAPGKERELVAAKSSGGSTNYADSVKGRFTISRDNAKNTVYLQMNSLKPEDTAVYSCAAYDSVQKYWILGFDYWGQGTQVTVSS | low polyreactivity
34 | QVQLVESGGGLVQAGCSLRLSSAASGSIFDDNALGRYRPAPGTDRELVAAISDNDGSTYYADSVKGRFTISRDNAKTTVYVQMNSLKADETAVYYCAATAQEWYPAVYNQYYYWGQGTQVTVSS | low polyreactivity
35 | QVQLVESGGGLVQAGCSLRLSSPASGRIFWANVMGWYRQAPGKERELVAAISYSGTGTYYADSVKGRFTISPDYAKNTVYLQMNSLKPEDTAFYYFAKAPYIYYWGQGTHVTVSS | high polyreactivity
36 | QVQLVESGGGLVQAGCSLRLSWAASGRIIKYNAMGWYRQAPGKERELVAVITSGGSTYYAYSVKGRFTISRDNAKNTVYLQMNSLKPEDTAVYYCAAGFGDGPGNGYYSRYSWDDDYWGQGTQVTVSS | low polyreactivity
37 | QVQLVESGGGLVQAGCSLRLTCAASGFIFYYNAMGWYRQAPGKQKELVAAISWSDGGTYYADSVKGRFTISRDNAKNTVSLQMNRLKPEDTAVYYFSGDIDNWSEYDYWGQGTQVTVSS | low polyreactivity
38 | QVQLVESGGGLVQAGCSRRLRCAASGFTFRLYAMGWSRQAPGKERELVAATTSGGSTYYADSVKGRFTISRDNAKNTVYLQMNSLKPEDTAVYYCNKLYRTSVEYDYWGQGTLVTVSS | high polyreactivity
39 | QVQLVESGGGLVQAGCTLRLSSAASGRIYRYNVMGWSRQAPGKESELVAGISSGGSTNYADSVKGRFTISRDNAKNTVYLQMTSLKPEDTAVYFCSKRWLNAKPYGQAMYSWGQGTQVTVSS | high polyreactivity
40 | QVQLVESGGGLVQAGFSLRLSCAASGNIYYKYAMGWYRQAPGKERELVAAITWRVVRTYYADSVKGRFTISRDNAKNTVYLQMNSLKPEDTAVYYCAALSRQSGDYWGQGTQVTVSS | high polyreactivity
41 | QVQLVESGGGLVQAGFSLRLSCAASGSTFQSYTMGRSRQAPGKERELVAAISSSGGRTYYADSVKGRYTISRDYAKNTVYLQMNSLNPEDTAVYYCAAVSKSWRGATWYDYWGQGTQVTVSS | high polyreactivity
42 | QVQLVESGGGLVQAGGCLRISCAASGSIFPFYVMGRYRQAPGKERELVAAITRSGGSTYYADSVKGRFTISRDNAKNTVYLQMNSLKPEDTAVYYCAKRPHHGSTKYNYWGQGTQVTVSS | low polyreactivity
43 | QVQLVESGGGLVQAGGCLRKSCAASGFTFFSYARGWSRQAPGKERELVAGINSSGGSTNYADSVKGRFTISRDNAKNTVYLLMNSLKPEDTAVYYCNADLRSEYDYWGQGTQVTVSS | low polyreactivity

From the nanobody polyreactivity screen of Harvey et al. (2022)
